Two substances from patent US20100093076A1, “SOLUBLE IL-27 RECEPTOR” (priority 2006, published 2010) can be followed below.

Assay [1] deals with mouse IL-27 (single-chain molecule: EBI3 connected by its C-terminus to the N-terminus of IL-27 p28 via a polypeptide linker, amino-terminal peptide tag) (mouse) (UniProt O35228). The experiment in a line: SPR (BIACORE 3000), receptor captured by anti-mouse Fc antibody on CM5 chip, ligand as analyte, 1:1 model with mass transport. In general terms: In SPR one partner is held on a chip, and binding of the other changes the refractive index at the surface.

Assay [2] shares this target. The experiment in a line: cell-based or functional assay.
Assay [3] concerns the target human IL-27 (single-chain molecule: EBI3 connected by its C-terminus to the N-terminus of IL-27 p28 via a polypeptide linker, amino-terminal peptide tag) (human) (UniProt Q14213). The experiment in a line: cell-based or functional assay.
In assay [4] the target is mouse IL-27 (single-chain molecule: EBI3 connected by its C-terminus to the N-terminus of IL-27 p28 via a polypeptide linker, amino-terminal peptide tag) (mouse) (UniProt O35228). The experiment in a line: SPR (BIACORE 3000), receptor amine-coupled to CM5 chip, ligand as analyte, 1:1 model with mass transport.
Assay [5] addresses human IL-27 (single-chain molecule: EBI3 connected by its C-terminus to the N-terminus of IL-27 p28 via a polypeptide linker, amino-terminal peptide tag) (human) (UniProt Q14213). The assay is described as above.

Broadly, the Kd is the equilibrium constant for the complex coming apart. The low end stands for tighter binding, the high end for weaker binding. Broadly, the koff is the first-order rate constant of dissociation. Read a low koff as slow dissociation. As usually defined, the kon is the second-order rate constant of association. Read a high kon as fast association. “IL27RAm(mFc1), mouse IL27RA-Fc fusion polypeptide (extracellular domain of mouse IL27RA and wild type BALB/c mouse gamma2a constant region Fc tag)”: in assay [1], the Kd is 0.12 nM, the koff was determined as 0.0012 s⁻¹ and the kon was determined as 1e+07 M⁻¹ s⁻¹. Further, in assay [2], the IC50 (nM), inhibition of IL-27-induced STAT3 phosphorylation, mouse spleens, muIL-27 at EC90 0.2 nM is 0.18 nM; the IC50 (nM), inhibition of IL-27-induced STAT3 phosphorylation, total human PBMCs, muIL-27 at EC90 2 nM stood at 4.83 nM; the IL-2 concentration (pg/ml), naive mouse CD4 T cells, 48 hr, mIL-27RA 0 ug/ml (zero point, no soluble receptor present) + mouse IL-27 10 ng/ml came out at 1260 pg/mL; the IL-2 concentration (pg/ml), naive mouse CD4 T cells, 48 hr, mIL-27RA 5 ug/ml + mouse IL-27 10 ng/ml came to 4020 pg/mL. Further, in assay [2], the IL-2 concentration (pg/ml), naive mouse CD4 T cells, 48 hr, mIL-27RA 10 ug/ml (second row) + mouse IL-27 10 ng/ml was determined as 4920 pg/mL; the IL-2 concentration (pg/ml), naive mouse CD4 T cells, 48 hr, mIL-27RA 10 ug/ml + mouse IL-27 10 ng/ml is 5220 pg/mL; the IL-2 concentration (pg/ml), naive mouse CD4 T cells, 72 hr, mIL-27RA 0 ug/ml (zero point, no soluble receptor present) + mouse IL-27 10 ng/ml is 234 pg/mL; the IL-2 concentration (pg/ml), naive mouse CD4 T cells, 72 hr, mIL-27RA 5 ug/ml + mouse IL-27 10 ng/ml stood at 5740 pg/mL. For the same substance, in assay [2], the IL-2 concentration (pg/ml), naive mouse CD4 T cells, 72 hr, mIL-27RA 10 ug/ml (second row) + mouse IL-27 10 ng/ml stood at 12200 pg/mL; the IL-2 concentration (pg/ml), naive mouse CD4 T cells, 72 hr, mIL-27RA 10 ug/ml + mouse IL-27 10 ng/ml came out at 6700 pg/mL; the block of the ability of mouse IL-27 to inhibit IL-2 production by naive CD4 T cells was determined as 50%. In addition, in assay [3], the IC50 (nM), inhibition of IL-27-induced STAT3 phosphorylation, mouse spleens, huIL-27 at EC90 2 nM was determined as 9.3 nM and the IC50 (nM), inhibition of IL-27-induced STAT3 phosphorylation, total human PBMCs, huIL-27 at EC90 2 nM was 1370 nM.
For the substance “human IL27RA-Fc5 fusion protein (Fc fusion)”, in assay [4], the Kd is 0.22 nM, the koff came to 0.0018 s⁻¹ and the kon worked out at 8.1e+06 M⁻¹ s⁻¹. In assay [5], this substance returned a dissociation constant Kd of 0.19 nM, a koff of 0.0019 s⁻¹ and a kon of 1e+07 M⁻¹ s⁻¹. In assay [2], the IC50 (nM), inhibition of IL-27-induced STAT3 phosphorylation, mouse spleens, muIL-27 at EC90 0.2 nM is 0.14 nM; the IC50 (nM), inhibition of IL-27-induced STAT3 phosphorylation, total human PBMCs, muIL-27 at EC90 2 nM is 2.97 nM; the IL-2 concentration (pg/ml), naive mouse CD4 T cells, 48 hr, hIL-27RA 0 ug/ml (zero point, no soluble receptor present) + mouse IL-27 10 ng/ml is 1780 pg/mL; the IL-2 concentration (pg/ml), naive mouse CD4 T cells, 48 hr, hIL-27RA 5 ug/ml + mouse IL-27 10 ng/ml was determined as 5780 pg/mL. Further, in assay [2], the IL-2 concentration (pg/ml), naive mouse CD4 T cells, 48 hr, hIL-27RA 10 ug/ml (second row) + mouse IL-27 10 ng/ml is 5330 pg/mL; the IL-2 concentration (pg/ml), naive mouse CD4 T cells, 48 hr, hIL-27RA 10 ug/ml + mouse IL-27 10 ng/ml was 5770 pg/mL; the IL-2 concentration (pg/ml), naive mouse CD4 T cells, 72 hr, hIL-27RA 0 ug/ml (zero point, no soluble receptor present) + mouse IL-27 10 ng/ml came to 1260 pg/mL; the IL-2 concentration (pg/ml), naive mouse CD4 T cells, 72 hr, hIL-27RA 5 ug/ml + mouse IL-27 10 ng/ml came out at 1870 pg/mL. For the same substance, in assay [2], the IL-2 concentration (pg/ml), naive mouse CD4 T cells, 72 hr, hIL-27RA 10 ug/ml (second row) + mouse IL-27 10 ng/ml stood at 17500 pg/mL; the IL-2 concentration (pg/ml), naive mouse CD4 T cells, 72 hr, hIL-27RA 10 ug/ml + mouse IL-27 10 ng/ml was determined as 28600 pg/mL; the block of the ability of mouse IL-27 to inhibit IL-2 production by naive CD4 T cells stood at 50%. In addition, in assay [3], the IC50 (nM), inhibition of IL-27-induced STAT3 phosphorylation, mouse spleens, huIL-27 at EC90 2 nM stood at 0.32 nM and the IC50 (nM), inhibition of IL-27-induced STAT3 phosphorylation, total human PBMCs, huIL-27 at EC90 2 nM came to 0.95 nM.
